Data reported in the supplement of paper PMC10065799, “High-throughput profiling of sequence recognition by tyrosine kinases and SH2 domains using bacterial peptide display” (eLife, 2023).

Molecular target: Jak2 (UniProt O60674)
Experiment: phosphorylation enrichment, bacterial display (enrichment ratio); higher = better substrate or ligand; peptides without Tyr show the background
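Note: 11-residue human phosphosite peptides and single-mutation variants displayed on the E. coli surface, counted by deep sequencing, each peptide's frequency after selection divided by its frequency in the unselected input library; frequency after pTyr selection over input frequency; kinase dosed for 20-30% of maximal phosphorylation in three min.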

Jak2, sequence (O60674 whole entry, looked up): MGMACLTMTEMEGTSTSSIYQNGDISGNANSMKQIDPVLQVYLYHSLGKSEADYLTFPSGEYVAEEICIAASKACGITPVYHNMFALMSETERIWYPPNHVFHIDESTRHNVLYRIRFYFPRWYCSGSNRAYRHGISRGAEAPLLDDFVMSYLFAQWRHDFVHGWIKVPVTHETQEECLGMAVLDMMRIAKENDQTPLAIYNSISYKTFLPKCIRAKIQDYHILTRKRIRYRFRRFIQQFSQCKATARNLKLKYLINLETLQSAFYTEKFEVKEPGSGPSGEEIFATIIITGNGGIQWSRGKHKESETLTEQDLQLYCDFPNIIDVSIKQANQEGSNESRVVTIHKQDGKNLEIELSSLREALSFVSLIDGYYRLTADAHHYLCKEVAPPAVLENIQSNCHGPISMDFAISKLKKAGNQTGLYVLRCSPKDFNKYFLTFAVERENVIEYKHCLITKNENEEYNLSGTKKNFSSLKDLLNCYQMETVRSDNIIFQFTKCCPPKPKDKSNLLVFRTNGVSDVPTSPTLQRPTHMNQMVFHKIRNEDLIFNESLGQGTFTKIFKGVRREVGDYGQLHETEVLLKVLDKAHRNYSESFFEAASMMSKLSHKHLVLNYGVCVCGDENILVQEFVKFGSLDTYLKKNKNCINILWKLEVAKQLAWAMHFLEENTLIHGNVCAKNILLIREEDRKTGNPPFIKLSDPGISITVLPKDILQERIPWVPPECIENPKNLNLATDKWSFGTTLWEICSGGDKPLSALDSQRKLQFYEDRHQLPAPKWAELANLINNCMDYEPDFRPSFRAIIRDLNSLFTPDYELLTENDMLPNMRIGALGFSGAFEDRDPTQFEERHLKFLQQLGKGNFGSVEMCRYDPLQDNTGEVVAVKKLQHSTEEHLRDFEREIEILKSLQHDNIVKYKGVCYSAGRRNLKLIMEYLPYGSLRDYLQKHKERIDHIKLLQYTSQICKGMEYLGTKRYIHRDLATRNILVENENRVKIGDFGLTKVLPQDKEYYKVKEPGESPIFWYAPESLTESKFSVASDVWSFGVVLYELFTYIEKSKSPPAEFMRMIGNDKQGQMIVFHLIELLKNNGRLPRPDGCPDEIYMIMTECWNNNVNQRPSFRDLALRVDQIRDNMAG

| Sequence | phosphorylation enrichment |
| --- | --- |
| LMIEEYLTKEL [BAG3_Y457] | 2.83 |
| LGPDGYSTVDQ [ARVCF_Y901_R906Q] | 1.72 |
| FGMSSYITRED [FNDC3B_Y180_T179S_YF] | 0.559 |
| GTATAYLCRVK [ALPL_Y117_G120R] | 0.578 |
| YEAMEYLESKQ [BTK_Y511_C506Y] | 1.14 |
| LGQGKYSEVFE [CSNK2A1_Y50_R47Q] | 0.857 |
| FAANFYKLLGN [ROR2_Y646_D644N_YF] | 0.924 |
| MSSLYYANTLF [HOXB7_Y6] | 3.08 |
| DDEVFYSPLSL [OTC_Y317_R320L] | 1.28 |
| YYYDLYGGEKF [PTPN11_Y66_D61Y] | 5.36 |
| DGPVNYEEFVQ [CALM2_Y139_Q136P] | 1.18 |
| IYLADCRIMEG [ALOX12B_Y318_Y318C] | 0.95 |
| RAWPPYTVAAD [ANKZF1_Y572_R569W] | 0.683 |

Molecular target: Fyn (UniProt P06241)
Sequence (P06241 whole entry, looked up): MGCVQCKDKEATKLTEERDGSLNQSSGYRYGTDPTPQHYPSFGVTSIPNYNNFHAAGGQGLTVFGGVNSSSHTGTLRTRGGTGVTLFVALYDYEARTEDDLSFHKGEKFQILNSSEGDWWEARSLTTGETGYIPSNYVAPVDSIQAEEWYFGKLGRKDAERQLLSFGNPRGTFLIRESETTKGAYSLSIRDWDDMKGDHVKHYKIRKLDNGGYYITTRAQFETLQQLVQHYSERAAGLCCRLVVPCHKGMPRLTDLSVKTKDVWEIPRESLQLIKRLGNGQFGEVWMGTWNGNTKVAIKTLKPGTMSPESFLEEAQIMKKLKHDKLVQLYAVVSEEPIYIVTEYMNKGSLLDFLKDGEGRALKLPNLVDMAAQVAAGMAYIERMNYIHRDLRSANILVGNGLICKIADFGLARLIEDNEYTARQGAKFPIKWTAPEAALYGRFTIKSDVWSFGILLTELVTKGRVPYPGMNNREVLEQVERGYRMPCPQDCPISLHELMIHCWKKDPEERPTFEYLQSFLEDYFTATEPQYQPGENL
Experiment: as above

| Sequence | phosphorylation enrichment |
| --- | --- |
| LMIEEYLTKEL [BAG3_Y457] | 0.723 |
| LGPDGYSTVDQ [ARVCF_Y901_R906Q] | 0.982 |
| FGMSSYITRED [FNDC3B_Y180_T179S_YF] | 0.59 |
| GTATAYLCRVK [ALPL_Y117_G120R] | 0.404 |
| YEAMEYLESKQ [BTK_Y511_C506Y] | 0.654 |
| LGQGKYSEVFE [CSNK2A1_Y50_R47Q] | 0.489 |
| FAANFYKLLGN [ROR2_Y646_D644N_YF] | 0.365 |
| MSSLYYANTLF [HOXB7_Y6] | 4.32 |
| DDEVFYSPLSL [OTC_Y317_R320L] | 5.08 |
| YYYDLYGGEKF [PTPN11_Y66_D61Y] | 5.97 |
| DGPVNYEEFVQ [CALM2_Y139_Q136P] | 0.482 |
| IYLADCRIMEG [ALOX12B_Y318_Y318C] | 0.684 |
| RAWPPYTVAAD [ANKZF1_Y572_R569W] | 0.571 |

Molecular target: EPHB2 (UniProt P29323)
Sequence (P29323 whole entry, looked up): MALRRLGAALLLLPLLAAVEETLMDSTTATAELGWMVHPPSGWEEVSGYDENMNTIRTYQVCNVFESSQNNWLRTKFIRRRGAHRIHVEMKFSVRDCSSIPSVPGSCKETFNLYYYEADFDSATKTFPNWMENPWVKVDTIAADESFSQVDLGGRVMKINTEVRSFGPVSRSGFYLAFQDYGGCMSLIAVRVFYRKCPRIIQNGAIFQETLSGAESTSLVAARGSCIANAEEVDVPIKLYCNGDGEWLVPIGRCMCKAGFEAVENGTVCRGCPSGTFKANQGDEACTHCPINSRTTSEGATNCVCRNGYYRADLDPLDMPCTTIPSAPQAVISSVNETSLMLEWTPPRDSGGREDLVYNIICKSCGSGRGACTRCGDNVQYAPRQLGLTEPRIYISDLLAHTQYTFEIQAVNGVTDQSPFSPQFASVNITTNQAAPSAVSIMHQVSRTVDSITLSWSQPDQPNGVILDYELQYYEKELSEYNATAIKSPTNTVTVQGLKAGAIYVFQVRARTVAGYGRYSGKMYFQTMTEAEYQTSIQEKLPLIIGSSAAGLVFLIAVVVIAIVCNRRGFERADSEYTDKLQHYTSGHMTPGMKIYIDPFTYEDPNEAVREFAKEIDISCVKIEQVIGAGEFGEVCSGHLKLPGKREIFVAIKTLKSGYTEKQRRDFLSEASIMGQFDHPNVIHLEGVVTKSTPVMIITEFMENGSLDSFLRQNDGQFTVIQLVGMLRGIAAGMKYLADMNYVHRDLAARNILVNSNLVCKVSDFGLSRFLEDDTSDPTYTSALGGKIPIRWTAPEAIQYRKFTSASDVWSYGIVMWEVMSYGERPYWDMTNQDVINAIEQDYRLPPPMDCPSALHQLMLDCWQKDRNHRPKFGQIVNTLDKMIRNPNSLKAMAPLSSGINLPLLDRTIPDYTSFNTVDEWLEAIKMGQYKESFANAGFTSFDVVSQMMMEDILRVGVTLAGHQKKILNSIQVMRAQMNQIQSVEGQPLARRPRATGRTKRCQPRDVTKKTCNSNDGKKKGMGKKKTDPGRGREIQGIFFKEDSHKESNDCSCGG
Experiment: as above

| Sequence | phosphorylation enrichment |
| --- | --- |
| LMIEEYLTKEL [BAG3_Y457] | 0.993 |
| LGPDGYSTVDQ [ARVCF_Y901_R906Q] | 1.22 |
| FGMSSYITRED [FNDC3B_Y180_T179S_YF] | 0.653 |
| GTATAYLCRVK [ALPL_Y117_G120R] | 0.506 |
| YEAMEYLESKQ [BTK_Y511_C506Y] | 0.843 |
| LGQGKYSEVFE [CSNK2A1_Y50_R47Q] | 0.552 |
| FAANFYKLLGN [ROR2_Y646_D644N_YF] | 0.462 |
| MSSLYYANTLF [HOXB7_Y6] | 12.8 |
| DDEVFYSPLSL [OTC_Y317_R320L] | 0.598 |
| YYYDLYGGEKF [PTPN11_Y66_D61Y] | 11.5 |
| DGPVNYEEFVQ [CALM2_Y139_Q136P] | 1.08 |
| IYLADCRIMEG [ALOX12B_Y318_Y318C] | 0.932 |
| RAWPPYTVAAD [ANKZF1_Y572_R569W] | 0.517 |

Molecular target: FGFR3 (UniProt P22607)
Sequence (P22607 whole entry, looked up): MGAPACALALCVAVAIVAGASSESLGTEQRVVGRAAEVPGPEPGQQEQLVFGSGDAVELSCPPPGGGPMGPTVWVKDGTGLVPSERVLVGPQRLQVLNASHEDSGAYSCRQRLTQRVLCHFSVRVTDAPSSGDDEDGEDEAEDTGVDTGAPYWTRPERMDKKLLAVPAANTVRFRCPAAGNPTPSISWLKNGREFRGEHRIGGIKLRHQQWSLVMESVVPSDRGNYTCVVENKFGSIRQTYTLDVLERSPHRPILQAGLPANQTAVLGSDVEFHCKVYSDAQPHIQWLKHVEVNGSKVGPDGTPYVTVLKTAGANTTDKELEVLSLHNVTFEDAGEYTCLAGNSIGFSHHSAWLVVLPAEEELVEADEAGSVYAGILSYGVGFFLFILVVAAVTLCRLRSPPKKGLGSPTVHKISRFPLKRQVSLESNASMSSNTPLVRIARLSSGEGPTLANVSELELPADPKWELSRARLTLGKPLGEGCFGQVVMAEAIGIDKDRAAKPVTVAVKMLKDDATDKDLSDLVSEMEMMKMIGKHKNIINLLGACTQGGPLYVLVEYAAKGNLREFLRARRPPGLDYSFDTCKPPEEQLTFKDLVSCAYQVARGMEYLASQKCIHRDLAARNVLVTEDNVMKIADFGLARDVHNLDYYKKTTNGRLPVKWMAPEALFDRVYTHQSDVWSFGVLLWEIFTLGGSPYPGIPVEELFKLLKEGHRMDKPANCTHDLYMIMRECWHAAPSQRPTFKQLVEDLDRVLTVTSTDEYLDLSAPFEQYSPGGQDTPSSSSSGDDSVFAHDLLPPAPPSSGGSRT
Experiment: as above

| Sequence | phosphorylation enrichment |
| --- | --- |
| LMIEEYLTKEL [BAG3_Y457] | 1.14 |
| LGPDGYSTVDQ [ARVCF_Y901_R906Q] | 1.21 |
| FGMSSYITRED [FNDC3B_Y180_T179S_YF] | 0.693 |
| GTATAYLCRVK [ALPL_Y117_G120R] | 0.514 |
| YEAMEYLESKQ [BTK_Y511_C506Y] | 1.04 |
| LGQGKYSEVFE [CSNK2A1_Y50_R47Q] | 0.591 |
| FAANFYKLLGN [ROR2_Y646_D644N_YF] | 0.512 |
| MSSLYYANTLF [HOXB7_Y6] | 5.82 |
| DDEVFYSPLSL [OTC_Y317_R320L] | 2.76 |
| YYYDLYGGEKF [PTPN11_Y66_D61Y] | 13.6 |
| DGPVNYEEFVQ [CALM2_Y139_Q136P] | 0.725 |
| IYLADCRIMEG [ALOX12B_Y318_Y318C] | 0.842 |
| RAWPPYTVAAD [ANKZF1_Y572_R569W] | 0.589 |
